Residue numbers refer to the chain shown, from its start. Numbers in names are those of the source. One block for each binder: values may come before it.
What was measured:
[1] = target: the molecule itself; experiment: FRET or BRET; donor UBE2J2_(A488) and acceptor UBE2J2_(A594) co-reconstituted in liposomes with 10% or 60% SFAs (P/L = 1:20,000 and 1:5000); 37 °C; 20 mM HEPES/KOH pH 7.4, 150 mM KCl, 5 mM magnesium acetate, 0.1 mM TCEP, 0.2 mg/mL BSA; excitation 480 nm, I614/I516
[2] = target: ubiquitin-activating enzyme E1 (yeast Uba1) (yeast, UniProt P22515 1-1024); experiment: cross-linking; UBE2J2 proteoliposomes (10% or 60% SFAs, P/L = 1:32,000) incubated with E1 ± BMOE; with or without pre-incubation with low OG; SDS-PAGE and fluorescence scanning; details: both partners purified
Chain of ubiquitin-activating enzyme E1 (yeast Uba1) (P22515 whole entry): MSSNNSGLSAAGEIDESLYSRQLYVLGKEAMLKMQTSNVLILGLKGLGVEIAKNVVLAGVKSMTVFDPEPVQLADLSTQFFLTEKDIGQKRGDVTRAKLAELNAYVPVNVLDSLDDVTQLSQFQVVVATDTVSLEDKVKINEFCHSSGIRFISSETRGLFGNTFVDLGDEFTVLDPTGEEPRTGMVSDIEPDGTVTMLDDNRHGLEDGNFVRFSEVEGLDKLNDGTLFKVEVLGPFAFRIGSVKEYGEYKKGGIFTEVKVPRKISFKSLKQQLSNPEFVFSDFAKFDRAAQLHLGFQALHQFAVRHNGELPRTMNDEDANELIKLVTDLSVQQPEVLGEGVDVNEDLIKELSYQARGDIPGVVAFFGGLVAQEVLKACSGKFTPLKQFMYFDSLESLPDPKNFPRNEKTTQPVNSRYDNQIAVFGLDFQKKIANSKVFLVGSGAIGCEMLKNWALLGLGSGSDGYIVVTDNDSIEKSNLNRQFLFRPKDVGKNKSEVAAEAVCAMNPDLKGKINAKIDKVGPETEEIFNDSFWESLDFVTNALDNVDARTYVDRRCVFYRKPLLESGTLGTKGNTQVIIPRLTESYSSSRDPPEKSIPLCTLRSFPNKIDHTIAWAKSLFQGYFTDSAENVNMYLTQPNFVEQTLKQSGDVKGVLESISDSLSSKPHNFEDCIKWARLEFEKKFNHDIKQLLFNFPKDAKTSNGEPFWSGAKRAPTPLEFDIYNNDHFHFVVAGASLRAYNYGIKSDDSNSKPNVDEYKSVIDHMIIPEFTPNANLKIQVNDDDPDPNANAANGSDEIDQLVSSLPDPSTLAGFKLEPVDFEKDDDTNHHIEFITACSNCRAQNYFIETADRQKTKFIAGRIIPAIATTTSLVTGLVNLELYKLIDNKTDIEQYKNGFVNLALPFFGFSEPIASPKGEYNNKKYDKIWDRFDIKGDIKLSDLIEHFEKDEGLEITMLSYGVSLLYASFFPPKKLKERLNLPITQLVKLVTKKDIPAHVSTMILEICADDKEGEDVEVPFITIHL

binding result [2]: binds
B1: UBE2J2 (full-length, membrane-anchored, fluorescently labeled, reconstituted in liposomes) (enzyme, human, UniProt Q8N2K1 1-259, looked up)
chain: MSSTSSKRAPTTATQRLKQDYLRIKKDPVPYICAEPLPSNILEWHYVVRGPEMTPYEGGYYHGKLIFPREFPFKPPSIYMITPNGRFKCNTRLCLSITDFHPDTWNPAWSVSTILTGLLSFMVEKGPTLGSIETSDFTKRQLAVQSLAFNLKDKVFCELFPEVVEEIKQKQKAQDELSSRPQTLPLPDVVPDGETHLVQNGIQLLNGHAPGAVPNLAGLQQANRHHGLLGGALANLFVIVGFAAFAYTVKYVLRSIAQE
modifications: fluorescent label at the C-terminus by sortase A (fluorophore-conjugated GGC peptide): DL680; Alexa Fluor 488 or Alexa Fluor 594 in the FRET assay
notes: UBE2J2, human, ubiquitin-conjugating enzyme E2 J2 with C-terminal transmembrane segment; The same construct carries different C-terminal dyes in different experiments; also called UBE2J2_(DL680); UBE2J2_(A488)
binding result [1]: binds

binding result [2]: binds
B2: UBE2J2^F137E (membrane-anchored, reconstituted in liposomes) (enzyme, human, UniProt Q8N2K1 1-259, looked up)
chain: B1 chain with F137E
modifications: fluorescently labeled (UBE2J2 variants were fluorescently labeled after affinity purification)
notes: UBE2J2, human, with F137E; also called UBE2J2 F137E mutant

From PMC12511567, “UBE2J2 sensitizes the ERAD ubiquitination cascade to changes in membrane lipid saturation” (Nature Communications, 2025)
